Assay [1] addresses T1, ECF17_1691.
T1 chain: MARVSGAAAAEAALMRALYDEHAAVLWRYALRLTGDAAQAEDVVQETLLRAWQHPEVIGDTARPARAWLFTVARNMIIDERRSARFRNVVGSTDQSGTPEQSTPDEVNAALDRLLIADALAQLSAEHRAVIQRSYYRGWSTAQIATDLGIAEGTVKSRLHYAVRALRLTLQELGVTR

In assay [2] the target is T2, ECF37_2513.
T2 chain: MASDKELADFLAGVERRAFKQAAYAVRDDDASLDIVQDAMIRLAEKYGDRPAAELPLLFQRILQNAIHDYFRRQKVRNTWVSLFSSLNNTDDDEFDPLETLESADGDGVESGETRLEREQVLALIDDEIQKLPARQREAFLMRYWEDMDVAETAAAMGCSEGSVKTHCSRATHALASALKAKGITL

The target in assay [3] is T3, ECF14_1324.
T3 chain: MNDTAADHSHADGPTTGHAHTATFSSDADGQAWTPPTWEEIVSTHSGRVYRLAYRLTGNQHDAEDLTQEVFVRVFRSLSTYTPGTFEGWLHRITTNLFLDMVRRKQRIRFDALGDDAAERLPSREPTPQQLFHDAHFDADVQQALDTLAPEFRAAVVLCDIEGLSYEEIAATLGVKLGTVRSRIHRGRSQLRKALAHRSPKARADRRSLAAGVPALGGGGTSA

Assay [4] has as its target T4, ECF33_375.
T4 chain: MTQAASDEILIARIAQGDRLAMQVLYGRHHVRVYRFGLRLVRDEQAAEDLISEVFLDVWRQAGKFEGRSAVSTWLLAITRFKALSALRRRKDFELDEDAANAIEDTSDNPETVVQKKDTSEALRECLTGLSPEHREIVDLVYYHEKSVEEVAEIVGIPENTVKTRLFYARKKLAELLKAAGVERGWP

In assay [5] the target is T5, ECF15_436.
T5 chain: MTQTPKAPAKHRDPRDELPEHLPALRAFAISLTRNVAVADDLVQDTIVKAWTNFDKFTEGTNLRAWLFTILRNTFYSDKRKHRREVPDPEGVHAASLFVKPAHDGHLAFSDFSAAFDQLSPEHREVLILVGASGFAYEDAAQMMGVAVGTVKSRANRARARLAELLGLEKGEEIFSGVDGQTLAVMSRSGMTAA

Assay [6] has as its target T6, ECF28_1040.
T6 chain: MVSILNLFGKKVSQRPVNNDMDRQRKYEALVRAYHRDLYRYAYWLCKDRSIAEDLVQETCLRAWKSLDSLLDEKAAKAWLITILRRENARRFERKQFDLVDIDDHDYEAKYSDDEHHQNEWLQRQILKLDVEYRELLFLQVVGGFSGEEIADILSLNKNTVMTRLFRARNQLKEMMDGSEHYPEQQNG

Assay [7] addresses T7, ECF04_1609.
T7 chain: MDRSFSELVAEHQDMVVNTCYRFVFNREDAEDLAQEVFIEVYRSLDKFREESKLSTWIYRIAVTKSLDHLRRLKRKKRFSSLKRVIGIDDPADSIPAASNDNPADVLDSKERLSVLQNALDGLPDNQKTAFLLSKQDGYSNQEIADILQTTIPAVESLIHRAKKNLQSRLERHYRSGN

The target of assay [8] is T8, ECF22_1147.
T8 chain: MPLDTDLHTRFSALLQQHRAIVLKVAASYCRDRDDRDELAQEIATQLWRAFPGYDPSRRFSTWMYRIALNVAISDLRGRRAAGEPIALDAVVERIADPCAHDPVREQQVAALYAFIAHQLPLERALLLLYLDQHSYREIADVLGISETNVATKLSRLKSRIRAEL

Assay [9] concerns the target T9, ECF38_1322.
T9 chain: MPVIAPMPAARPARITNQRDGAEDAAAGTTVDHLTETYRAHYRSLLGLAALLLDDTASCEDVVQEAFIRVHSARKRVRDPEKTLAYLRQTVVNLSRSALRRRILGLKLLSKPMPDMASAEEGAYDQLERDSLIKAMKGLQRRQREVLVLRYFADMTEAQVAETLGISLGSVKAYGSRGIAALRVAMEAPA

Assay [10] concerns the target T10, ECF14_3200.
T10 chain: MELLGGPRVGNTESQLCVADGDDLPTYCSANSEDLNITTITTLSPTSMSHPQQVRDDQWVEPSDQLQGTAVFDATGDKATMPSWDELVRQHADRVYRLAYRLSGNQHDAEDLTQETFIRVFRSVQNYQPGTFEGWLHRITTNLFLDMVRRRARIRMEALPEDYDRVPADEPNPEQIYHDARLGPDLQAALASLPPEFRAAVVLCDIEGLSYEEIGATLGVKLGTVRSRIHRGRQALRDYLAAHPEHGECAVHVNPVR

The target of assay [11] is T11, ECF15_524.
T11 chain: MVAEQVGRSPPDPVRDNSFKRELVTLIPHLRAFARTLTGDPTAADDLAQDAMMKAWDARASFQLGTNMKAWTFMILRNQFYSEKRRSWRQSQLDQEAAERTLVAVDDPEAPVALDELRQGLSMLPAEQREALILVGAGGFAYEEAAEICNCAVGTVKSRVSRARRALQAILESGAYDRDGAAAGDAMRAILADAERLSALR

Assay [12] deals with T12, ECF16_3622.
T12 chain: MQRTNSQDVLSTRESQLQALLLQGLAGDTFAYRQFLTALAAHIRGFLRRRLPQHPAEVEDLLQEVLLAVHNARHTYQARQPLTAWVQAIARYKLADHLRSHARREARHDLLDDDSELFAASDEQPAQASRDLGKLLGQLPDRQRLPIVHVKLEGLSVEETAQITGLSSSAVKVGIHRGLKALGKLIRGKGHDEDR

The target in assay [13] is T13, ECF28_1088.
T13 chain: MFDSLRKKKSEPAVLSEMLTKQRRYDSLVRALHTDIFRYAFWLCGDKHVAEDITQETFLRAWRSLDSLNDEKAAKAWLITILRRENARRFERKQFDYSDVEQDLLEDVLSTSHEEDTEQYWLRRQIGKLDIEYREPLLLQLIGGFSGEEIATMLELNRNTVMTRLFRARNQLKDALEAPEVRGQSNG

Assay [14] deals with T14, ECF33_423.
T14 chain: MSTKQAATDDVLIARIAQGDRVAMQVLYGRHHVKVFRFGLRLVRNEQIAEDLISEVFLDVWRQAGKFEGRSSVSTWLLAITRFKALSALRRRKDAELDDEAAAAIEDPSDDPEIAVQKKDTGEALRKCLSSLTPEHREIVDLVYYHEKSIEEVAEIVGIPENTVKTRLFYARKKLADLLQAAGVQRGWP

B1: AS38_1322 (protein)
chain: MSDGNDARPDARDGHDPGSDARDGHDPGSHARDGHDPGAGPFDGHGPGSDAGDGDDAGPDARDGHGAPAGPAGREQRKHPHDTHDMHDTHDTHAGKGTVNHGPAAQGPDAPGADGPATDEAALRAMMQRAVREMEPSDGTLEHLRRAVPARRARKRQALVGAAAAALFLGTAVPALVHVSNATGAGADPSVAGNASQAQGGASQGKDPAGGQSGVAGTGDTPEDRDKADPKETPGGKEPGAATGAPPSGVPSASSPADVPACAPGSLGPAVASSAEPDSTGVVYGSFRVTNVSSDGCTVTGPGTVVTASLGAAEATRIGTARHAAGDAAAGLPDPSLETASLALAPGAAYEVQFAWVPSETCPTTGGTTGGGSGGPSPDPSPTADTTAAGGTSAGGGEAGPTTQLITEDGPAEGSVSVTYTPEGGSGSATATVSNACAGTVYWTGLLADSGSGA
With B1, the fold repression in assay [1] came to 2.81; in assay [2] it was 6.38; in [3], 8.93; in [4], 3.13; in [5], 5.64; in [6], 2.92. Further, the fold repression in [7] was 4.63; in [8], 6.04; in assay [9], 54.2; in [10], 8.3; in assay [11], 4.95; in assay [12] it was 4.56. In addition, the fold repression was determined as 3.19 in assay [13] and 3.68 in assay [14].

Source of the values: PMC3817407.
